Measured values reported in patent US20260070975A1.

Experiments:
[1] = biological target: c-Kit expressed on the cell surface of M-07e cells (human) (UniProt P10721); assay: cell-based or functional assay
[2] = biological target: c-Kit expressed on the cell surface of M-07e cells (human) (UniProt P10721)

Sequence of c-Kit expressed on the cell surface of M-07e cells (human) (P10721 26-976): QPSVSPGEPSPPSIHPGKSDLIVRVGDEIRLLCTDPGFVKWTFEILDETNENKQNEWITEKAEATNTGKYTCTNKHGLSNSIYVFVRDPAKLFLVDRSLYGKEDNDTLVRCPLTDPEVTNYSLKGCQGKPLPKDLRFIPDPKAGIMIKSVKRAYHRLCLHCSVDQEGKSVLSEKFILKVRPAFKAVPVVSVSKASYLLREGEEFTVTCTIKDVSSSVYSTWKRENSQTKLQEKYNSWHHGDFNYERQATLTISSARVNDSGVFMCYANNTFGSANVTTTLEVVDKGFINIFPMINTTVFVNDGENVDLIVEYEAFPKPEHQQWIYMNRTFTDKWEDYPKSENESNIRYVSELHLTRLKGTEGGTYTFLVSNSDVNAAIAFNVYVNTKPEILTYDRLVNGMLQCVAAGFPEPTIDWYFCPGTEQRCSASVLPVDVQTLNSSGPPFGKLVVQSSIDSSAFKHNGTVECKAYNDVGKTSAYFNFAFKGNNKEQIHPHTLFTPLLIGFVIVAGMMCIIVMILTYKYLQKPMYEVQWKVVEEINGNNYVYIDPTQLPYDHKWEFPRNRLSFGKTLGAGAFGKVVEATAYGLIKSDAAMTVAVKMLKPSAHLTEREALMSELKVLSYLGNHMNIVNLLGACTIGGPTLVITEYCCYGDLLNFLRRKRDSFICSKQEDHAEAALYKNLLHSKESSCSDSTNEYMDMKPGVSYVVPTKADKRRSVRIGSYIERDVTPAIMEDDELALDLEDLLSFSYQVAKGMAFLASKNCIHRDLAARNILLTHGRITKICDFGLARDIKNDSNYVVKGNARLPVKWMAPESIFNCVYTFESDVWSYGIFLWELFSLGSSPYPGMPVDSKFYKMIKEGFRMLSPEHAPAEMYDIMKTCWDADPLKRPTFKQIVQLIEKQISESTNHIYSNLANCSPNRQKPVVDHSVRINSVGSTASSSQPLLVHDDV

IC50, inhibition of SCF-dependent proliferation of M-07e cells [1]: 0.408 nM
IC50 (read off the curve) [2]: 0.1 to 0.2 nM
B1: CDX-0159 (antibody, INN chains, looked up, V domains shown)
VH: QVQLVQSGAEVKKPGASVKLSCKASGYTFTDYYINWVRQAPGKGLEWIARIYPGSGNTYYNEKFKGRATLTADKSTSTAYMQLSSLRSEDTAVYFCARGVYYFDYWGQGTTVTVSS
VL: DIVMTQSPSSLSASVGDRVTITCKASQNVRTNVAWYQQKPGKAPKALIYSASYRYSGVPDRFTGSGSGTDFTLTISSLQPEDFADYFCQQYNSYPRTFGGGTKVEIK
